B1: FAM107A (parent)
chain: HRRGLGVDSKPELQRVLEHRRRNQ
B2: FCHO1 (parent)
chain: FTSSPSPFSSSSPENVEDSGLDSP

Variants of: B1
Assay: protein stability index of a GFP-peptide fusion (GPS, HEK-293T) (PSI 1-6); higher = more stable
Settings: c terminus: a fixed tail appended
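Also: lentivirally expressed fusions sorted by FACS into six bins by GFP to DsRed ratio, PSI derived from sequencing read proportions per bin multiplied by bin number.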

Variant	protein stability index
HRRGLGVDSKPELQRVLEHRRRQQ	3.14
HRRGLGVDSKPELQRVLGHRRRNQ	3.58
HRRGLGVDSKPELQRVLDHRRRNQ	3.29
HRRGLGVDSSPELQRVLEHRRRNQ	5.01
HRRGLGVDSCPELQRVLEHRRRNQ	3.82
HRRGLGVDSDPELQRVLEHRRRNQ	4.89
HRRGLGVDSKPEQQRVLEHRRRNQ	5.33
HRRGLGVDSKPERQRVLEHRRRNQ	4.14
HRRGLGVYSKPELQRVLEHRRRNQ	2.41
HRRGLGVESKPELQRVLEHRRRNQ	4.59
HRRGLGVFSKPELQRVLEHRRRNQ	2.23
HRRGLGVKSKPELQRVLEHRRRNQ	3.79
HRRGLGVDSKPELQRVLEHRNRNQ	4.74
HRRGLGVDSKPELQRVLEHRQRNQ	4.38
HRRGLGVDSKPELQRVLEHRRRNK	4.39
HRRGLGVDSKPELQRVLEHRRRNA	3.88
HRRGLGVDSKPELQRVLEHRRRNL	2.49
HRRGLGVDSKPELQRVLEHRRNNQ	3.48
HRRALGVDSKPELQRVLEHRRRNQ	3.35
HRRYLGVDSKPELQRVLEHRRRNQ	4.32
HRRGLGVDSKPELQRVDEHRRRNQ	5.01
HRRGLGVDSKPELQRVGEHRRRNQ	5.21
HRRGLGVDSKPELQRVNEHRRRNQ	5.25
HRRGLGADSKPELQRVLEHRRRNQ	3.74
HRRGLGQDSKPELQRVLEHRRRNQ	4.95
HRRGLYVDSKPELQRVLEHRRRNQ	3.5
HRRGLKVDSKPELQRVLEHRRRNQ	2.56

Variant	protein stability index
HRRGLQVDSKPELQRVLEHRRRNQ	3.18
HRRGLGVDSKPELQYVLEHRRRNQ	4.79
HRRGLGVDSKPELQNVLEHRRRNQ	4.29
HRRGLGVDSKPELQRVLEYRRRNQ	3.72
HRRGLGVDSKPELQRVLEHMRRNQ	4.04
HRRGLGVDSKPELQRVLEHQRRNQ	3.96
HRRGLGVDSKPELQRVLEHPRRNQ	4.59
HRRGLGVDSKPELQRVLEHARRNQ	3.36
HRRGLGVDSKPELQRVLEHTRRNQ	4.42
HRRGLGVDSKPELPRVLEHRRRNQ	4
HRRGLGVDSKPELYRVLEHRRRNQ	3.15
HRRGLGVDSKPELSRVLEHRRRNQ	3.71
HRMGLGVDSKPELQRVLEHRRRNQ	3.9
HRHGLGVDSKPELQRVLEHRRRNQ	4.95
HRRGLGVDSKPTLQRVLEHRRRNQ	2.98
HRRGLGVDSKPELQRQLEHRRRNQ	5.45
HRRGLGVDSKPELQRTLEHRRRNQ	3.71
HRRGLGVDSKPELQRRLEHRRRNQ	4.67
HRRGLGVDSKPELQRFLEHRRRNQ	4.23
YRRGLGVDSKPELQRVLEHRRRNQ	4.12
HRRGLGVDSKWELQRVLEHRRRNQ	3.25
HRRGLGVDSKVELQRVLEHRRRNQ	3.95
HTRGLGVDSKPELQRVLEHRRRNQ	4.95
HDRGLGVDSKPELQRVLEHRRRNQ	5.11
HPRGLGVDSKPELQRVLEHRRRNQ	4.96
HGRGLGVDSKPELQRVLEHRRRNQ	4.84
HERGLGVDSKPELQRVLEHRRRNQ	4.7

Variants of: B2
Assay: as above
Settings: c terminus: a fixed tail appended

Variant	protein stability index
FTSSPSPFSSSSPEFVEDSGLDSP	1.73
FTSSPSPFSSSSPEWVEDSGLDSP	2.39
FTSSPSPFSSSSPEHVEDSGLDSP	1.66
FTSSPSPFSSSSPEGVEDSGLDSP	1.64
FTSSPSPFSSSSPEDVEDSGLDSP	2.25
FTSSPSPFSSSSPELVEDSGLDSP	2.01
FTSSPSPFSSSSPENVEDHGLDSP	2.46
FTSSPSPFSSSSPENVEDQGLDSP	2.21
FTSSPSPFSSSSPENVEDCGLDSP	2.22
FTSSPSPFSSSSPENVEDGGLDSP	1.64
FTSSPSPFSSSSPENVEDVGLDSP	2
FTSSPVPFSSSSPENVEDSGLDSP	1.99
FTSSPCPFSSSSPENVEDSGLDSP	2.18
FTSSPMPFSSSSPENVEDSGLDSP	1.83
FTSSPEPFSSSSPENVEDSGLDSP	2.85
FTSSPNPFSSSSPENVEDSGLDSP	1.98
FTSSPTPFSSSSPENVEDSGLDSP	2.19
FTSSPSPFQSSSPENVEDSGLDSP	2.06
FTSSPSPFKSSSPENVEDSGLDSP	1.89
FTSSPSPFVSSSPENVEDSGLDSP	1.73

Variant	protein stability index
FTSSPSPFWSSSPENVEDSGLDSP	2.71
FTSSPSPFSSSSPDNVEDSGLDSP	2.4
FTSSPSPFSSSSPMNVEDSGLDSP	2.05
FTSSPSPFSSSSPGNVEDSGLDSP	1.92
FTSSPSPFSSSSPYNVEDSGLDSP	1.72
FTSSPSPFSSSSPTNVEDSGLDSP	1.84
FTSSPSPFSSSSPVNVEDSGLDSP	2.15
FTSSPSPFSSSSPFNVEDSGLDSP	1.64
FTSSPSPFSSSSPLNVEDSGLDSP	2.22
FTSSPSPFSSSSPINVEDSGLDSP	1.9
FTSSPSPFSSSSPENVEDSGLDDP	2.18
FTSSPSPFSSSSPENVEDSGLDLP	2.6
FTSSPSPFSSSSPENVEDSGLDHP	2.44
FTSSPSPFSSSSPENVEDSGLDAP	2.06
FTSSPSPFSSSSPENVEDSGLDWP	2.12
FTSSPSPFSSSSPENVEDSGLDSS	1.94
FTSSPSPFSSSSPENVEDSGLDSH	2.42
FTSSPSPFSSSSPENVEDSGLDSK	1.96
FTSSPSPFSSSSPENVEDSGLDSC	2.99
FTSSPSPFSSSSPENVEDSGLDSE	1.84

Reference: the supplement of paper PMC10567573
